The text below walks through data of paper PMC5115986 (Journal of molecular biology, 2016).

The target in one assay is T1, GST-Dbf4 (budding yeast, UniProt P32325 1-704).
T1 sequence (looked up): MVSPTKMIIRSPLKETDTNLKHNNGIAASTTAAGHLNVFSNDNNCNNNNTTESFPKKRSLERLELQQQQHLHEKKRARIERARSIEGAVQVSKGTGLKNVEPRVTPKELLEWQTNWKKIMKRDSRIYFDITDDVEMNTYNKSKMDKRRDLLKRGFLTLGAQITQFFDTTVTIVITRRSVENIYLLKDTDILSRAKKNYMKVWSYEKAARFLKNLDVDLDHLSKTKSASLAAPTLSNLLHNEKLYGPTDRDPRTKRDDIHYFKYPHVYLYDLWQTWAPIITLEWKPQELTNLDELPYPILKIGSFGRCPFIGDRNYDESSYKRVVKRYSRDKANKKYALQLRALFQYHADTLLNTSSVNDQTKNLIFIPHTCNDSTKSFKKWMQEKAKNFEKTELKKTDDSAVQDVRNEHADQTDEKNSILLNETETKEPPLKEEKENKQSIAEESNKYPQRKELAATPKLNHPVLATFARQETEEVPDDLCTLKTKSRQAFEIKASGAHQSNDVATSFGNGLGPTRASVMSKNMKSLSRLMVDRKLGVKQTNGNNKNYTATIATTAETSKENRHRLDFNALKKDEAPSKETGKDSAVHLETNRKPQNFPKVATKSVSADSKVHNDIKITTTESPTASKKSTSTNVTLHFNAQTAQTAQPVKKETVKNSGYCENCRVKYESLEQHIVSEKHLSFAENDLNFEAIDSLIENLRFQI
Kind of assay: pull-down.

For another assay, the target named is T2, GST-Cdc45 (budding yeast, UniProt Q08032 1-650).
T2 sequence (looked up): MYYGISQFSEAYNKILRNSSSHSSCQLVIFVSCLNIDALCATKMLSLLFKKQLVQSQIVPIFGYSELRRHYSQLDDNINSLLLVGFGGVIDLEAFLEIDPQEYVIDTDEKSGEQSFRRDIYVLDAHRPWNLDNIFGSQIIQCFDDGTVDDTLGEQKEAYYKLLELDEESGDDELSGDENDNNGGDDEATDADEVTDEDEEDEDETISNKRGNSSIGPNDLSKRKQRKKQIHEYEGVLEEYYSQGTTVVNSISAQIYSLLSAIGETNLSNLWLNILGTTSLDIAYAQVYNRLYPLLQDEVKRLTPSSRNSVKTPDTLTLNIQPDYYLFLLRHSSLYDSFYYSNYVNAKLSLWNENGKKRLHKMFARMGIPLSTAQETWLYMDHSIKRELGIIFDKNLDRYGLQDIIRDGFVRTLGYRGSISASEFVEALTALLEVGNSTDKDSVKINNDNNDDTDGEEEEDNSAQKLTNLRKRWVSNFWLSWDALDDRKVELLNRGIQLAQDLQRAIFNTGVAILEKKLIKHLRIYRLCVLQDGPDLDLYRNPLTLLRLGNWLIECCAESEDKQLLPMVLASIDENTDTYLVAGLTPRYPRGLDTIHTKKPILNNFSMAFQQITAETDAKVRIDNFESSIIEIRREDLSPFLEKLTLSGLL
As to the kind of experiment: pull-down.

B1: PKA-Mcm10 (wild-type), radiolabeled (natural protein, Saccharomyces cerevisiae, UniProt P32354 1-571, looked up)
chain: MNDPREILAVDPYNNITSDEEDEQAIARELEFMERKRQALVERLKRKQEFKKPQDPNFEAIEVPQSPTKNRVKVGSHNATQQGTKFEGSNINEVRLSQLQQQPKPPASTTTYFMEKFQNAKKNEDKQIAKFESMMNARVHTFSTDEKKYVPIITNELESFSNLWVKKRYIPEDDLKRALHEIKILRLGKLFAKIRPPKFQEPEYANWATVGLISHKSDIKFTSSEKPVKFFMFTITDFQHTLDVYIFGKKGVERYYNLRLGDVIAILNPEVLPWRPSGRGNFIKSFNLRISHDFKCILEIGSSRDLGWCPIVNKKTHKKCGSPINISLHKCCDYHREVQFRGTSAKRIELNGGYALGAPTKVDSQPSLYKAKGENGFNIIKGTRKRLSEEEERLKKSSHNFTNSNSAKAFFDEKFQNPDMLANLDNKRRKIIETKKSTALSRELGKIMRRRESSGLEDKSVGERQKMKRTTESALQTGLIQRLGFDPTHGKISQVLKSSVSGSEPKNNLLGKKKTVINDLLHYKKEKVILAPSKNEWFKKRSHREEVWQKHFGSKETKETSDGSASDLEII
modifications: 32P label put on the PKA tag by protein kinase A with [gamma-32P]-ATP
As to B1, the binding result with GST-Dbf4 is “binds”.

B2: PKA-Mcm10-m2,3,4 (Mcm10-K216E-N313E-K314E), radiolabeled (natural protein, Saccharomyces cerevisiae, UniProt P32354 1-571, looked up)
chain: MNDPREILAVDPYNNITSDEEDEQAIARELEFMERKRQALVERLKRKQEFKKPQDPNFEAIEVPQSPTKNRVKVGSHNATQQGTKFEGSNINEVRLSQLQQQPKPPASTTTYFMEKFQNAKKNEDKQIAKFESMMNARVHTFSTDEKKYVPIITNELESFSNLWVKKRYIPEDDLKRALHEIKILRLGKLFAKIRPPKFQEPEYANWATVGLISHESDIKFTSSEKPVKFFMFTITDFQHTLDVYIFGKKGVERYYNLRLGDVIAILNPEVLPWRPSGRGNFIKSFNLRISHDFKCILEIGSSRDLGWCPIVEEKTHKKCGSPINISLHKCCDYHREVQFRGTSAKRIELNGGYALGAPTKVDSQPSLYKAKGENGFNIIKGTRKRLSEEEERLKKSSHNFTNSNSAKAFFDEKFQNPDMLANLDNKRRKIIETKKSTALSRELGKIMRRRESSGLEDKSVGERQKMKRTTESALQTGLIQRLGFDPTHGKISQVLKSSVSGSEPKNNLLGKKKTVINDLLHYKKEKVILAPSKNEWFKKRSHREEVWQKHFGSKETKETSDGSASDLEII
modifications: 32P label put on the PKA tag by protein kinase A with [gamma-32P]-ATP
In the case of B2, the binding result with GST-Cdc45 and with GST-Dbf4 was “binds” each time.
